In series [1] the target is T1, astexin-1.
T1 chain: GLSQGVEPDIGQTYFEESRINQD

Series [2] deals with T2, astexin-3 (lassoed, full-length).
T2 chain: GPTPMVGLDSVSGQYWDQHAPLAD

Series [3] addresses T3, astexin-3 ΔC1.
T3 chain: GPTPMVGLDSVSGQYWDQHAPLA

The target of series [4] is T4, unthreaded astexin-2 ΔC4.
T4 chain: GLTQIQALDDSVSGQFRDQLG

Series [5] deals with T5, astexin-3 ΔC2.
T5 chain: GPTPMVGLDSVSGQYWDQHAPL

Series [6] addresses T6, astexin-2 ΔC4 (lassoed, threaded).
T6 chain: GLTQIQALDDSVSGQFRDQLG

Series [7] deals with T7, unthreaded astexin-2 ΔC3.
T7 chain: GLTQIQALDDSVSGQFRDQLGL

The target of series [8] is T8, astexin-2 ΔC3 (lassoed, threaded).
T8 chain: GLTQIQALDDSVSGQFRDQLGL

B1: C-terminally His-tagged AtxE2 (protein)
chain: AAREAPPVTPEVLVRLADIGTMSASETTPLLSLSPDGRYVAFQVRQADPVTNLNVFRMVVKATDGATDAIDVDVGGEYLFWTIPSWGYARNAPSGANLTIQPRWSPSGTHLAYLRQDQGRVRVWRASVKGEGASPVIEDAYDIEDVQWLDDNTLIYSGRPGFVEAEAEIEREGRRGWVYDERFHPLTGARPRVLEPISIVYQVLDLKTGTRRAATPTEVARLREKPDPLRAMVGRTTFSVSRTDPQNINAPTTLVARRGEGEPVRCDEEACQNITRMWGDETANVLYFLRREGWASNEMALYRMPADALKPVRIWHATGLLQGCERQAKRLICAQESALQPRRLVTLNLTSGQMSPLYDPNPDLSRYRLPKVERLTLRNRNGIEVFSDLVLPPDYQLGTRLPLVIVQYSSRGFLRGGTGDENPILPLATAGFAVLSFHSPRSEASYQRFTSPIAQSKAEYSNWRNRWNILHTLEDLIDDLDRRGVIDPARVGLTGLSDGATTVHFGLINSHRFAAAVTSSCCTDSFTASVMNGPRISGALKAYGIETDQADDGPFWAATSFVVNASRLDTPLLIQSADEEYLGALPGFTALQQARKPVELIIYPNEHHVKWQPAHRLAVYNRTIDWFRFWLMDQSDPAPDKAAQYDRWRALRALRQKSPSPTPAP
Take B1: the “hydrolysis (HPLC retention time, MS) after 6 hours with 860 nM AtxE2” value in series [1] was “the retention time of astexin-1 did not shift after incubation with AtxE2 and no molecular weight difference was observed in the MS”. In addition, in series [2], the Km result is reported as “Km equal to 131 µM”; the “hydrolysis (HPLC retention time, MALDI MS) after 6 hours with 860 nM AtxE2” value was “an increase of 18 mass units for all astexin-2 and astexin-3 species, corresponding to the addition of a water molecule via the cleavage of a single amide bond”; the kcat result is recorded as “kcat equal to 0.38 s^-1”; the kcat/Km result was “kcat/Km value for AtxE2 to be 2.9×10^3 M^-1 s^-1”. In addition, the “hydrolysis (HPLC retention time, MALDI MS) after 6 hours with 860 nM AtxE2” value in series [3] is “an increase of 18 mass units for all astexin-2 and astexin-3 species, corresponding to the addition of a water molecule via the cleavage of a single amide bond”. Also, the “hydrolysis (HPLC retention time) in lysate extract treated with AtxE2” value in series [4] was “the retention times for these unthreaded species did not change after incubation with AtxE2”. In addition, in series [5], the “hydrolysis (HPLC retention time, MALDI MS) after 6 hours with 860 nM AtxE2” value is “an increase of 18 mass units for all astexin-2 and astexin-3 species, corresponding to the addition of a water molecule via the cleavage of a single amide bond”. The “hydrolysis (HPLC retention time, MALDI MS) after 6 hours with 860 nM AtxE2” value in series [6] was “an increase of 18 mass units for all astexin-2 and astexin-3 species, corresponding to the addition of a water molecule via the cleavage of a single amide bond”. In series [7], the “hydrolysis (HPLC retention time) in lysate extract treated with AtxE2” value was “the retention times for these unthreaded species did not change after incubation with AtxE2” and the “hydrolysis (HPLC retention time) of purified, heat-treated peptide with 424 nM AtxE2” value is listed as “only the threaded species exhibited a change in retention time consistent with hydrolysis of the isopeptide bond”. For the same protein, in series [8], the “hydrolysis (HPLC retention time) of purified peptide with 424 nM AtxE2” value was “only the threaded species exhibited a change in retention time consistent with hydrolysis of the isopeptide bond”; the “hydrolysis (HPLC retention time, MALDI MS) after 6 hours with 860 nM AtxE2” value is “an increase of 18 mass units for all astexin-2 and astexin-3 species, corresponding to the addition of a water molecule via the cleavage of a single amide bond”.

B2: His-tagged S527A mutant of AtxE2 (protein)
chain: AAREAPPVTPEVLVRLADIGTMSASETTPLLSLSPDGRYVAFQVRQADPVTNLNVFRMVVKATDGATDAIDVDVGGEYLFWTIPSWGYARNAPSGANLTIQPRWSPSGTHLAYLRQDQGRVRVWRASVKGEGASPVIEDAYDIEDVQWLDDNTLIYSGRPGFVEAEAEIEREGRRGWVYDERFHPLTGARPRVLEPISIVYQVLDLKTGTRRAATPTEVARLREKPDPLRAMVGRTTFSVSRTDPQNINAPTTLVARRGEGEPVRCDEEACQNITRMWGDETANVLYFLRREGWASNEMALYRMPADALKPVRIWHATGLLQGCERQAKRLICAQESALQPRRLVTLNLTSGQMSPLYDPNPDLSRYRLPKVERLTLRNRNGIEVFSDLVLPPDYQLGTRLPLVIVQYSSRGFLRGGTGDENPILPLATAGFAVLSFHSPRSEASYQRFTSPIAQSKAEYSNWRNRWNILHTLEDLIDDLDRRGVIDPARVGLTGLADGATTVHFGLINSHRFAAAVTSSCCTDSFTASVMNGPRISGALKAYGIETDQADDGPFWAATSFVVNASRLDTPLLIQSADEEYLGALPGFTALQQARKPVELIIYPNEHHVKWQPAHRLAVYNRTIDWFRFWLMDQSDPAPDKAAQYDRWRALRALRQKSPSPTPAP
Regarding B2, in series [2], the “activity toward astexin-3 in vitro” value is given as “AtxE2 S527A had no activity toward astexin-3”.
